# From paper PMC11540549 (Biochemistry, 2019)
# No end group written: not given here.
# T1: TCF19 (DDCAC) PHD (UniProt Q9Y242 296-342)
# T1 sequence: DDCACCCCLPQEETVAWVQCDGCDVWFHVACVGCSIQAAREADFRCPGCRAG
# Tests used:
# TCF19 PHD C324A = TCF19 PHD C324A (UniProt Q9Y242); test: NMR titration
# TCF19 PHD R330Y = TCF19 PHD R330Y (UniProt Q9Y242); test: NMR titration
# TCF19 PHD W307Y = TCF19 PHD W307Y (UniProt Q9Y242); test: NMR titration
# TCF19 (DDCAC) PHD = biological target: T1, TCF19 (DDCAC) PHD; test: other fluorescence titration
Kd (TCF19 PHD C324A),Kd (TCF19 PHD R330Y),Kd (TCF19 PHD W307Y),Kd (TCF19 (DDCAC) PHD),Molecule
440 µM,400 µM,2000 µM,,H3K4me3 peptide (residues 1-12) (from UniProt P68431 2-13)
,,,4.7 µM,"ARTK(Me3)QTARKSTG (peptide, UniProt P68431 2-13, looked up) [H3K4me3 peptide (residues 1-12)]"
